In the Human Domainome abundance scans (Beltran et al. 2025) one finds abundance fitness data, which are given here for 47 variants.

± gives the uncertainty stated by the source.

B1: Zinc finger homeobox protein 3, residues 2244 to 2299; numbered along this chain, Q15911 (parent)
chain: SSRTRFTDYQLRVLQDFFDANAYPKDDEFEQLSNLLNLPTRVIVVWFQNARQKARK

Variants of B1 are the subject of this series. In words: abundance fitness (aPCA) (normalised: wild type 0, dead -1); higher = more abundant; growth selection in yeast, the domain comes from the species named. The note with it: Homo sapiens.
Regarding SSRTRFTDYQLRVLQDFFDANAYPKDDQFEQLSNLLNLPTRVIVVWFQNARQKARK [E28Q], the abundance fitness was -0.169 ± 0.13.
As to SSRTRFTDYQLRVLQDFFDANAYPKDDSFEQLSNLLNLPTRVIVVWFQNARQKARK [E28S], the abundance fitness was -0.295 ± 0.11.
For SSRTRFTDYQLRVLQDFFDAHAYPKDDEFEQLSNLLNLPTRVIVVWFQNARQKARK [N21H], the abundance fitness is 0.031 ± 0.18.
In the case of SSRTRFTDYQLRVLQDFFDANAYPKDDEFEQLSNLLNLPTSVIVVWFQNARQKARK [R41S], the abundance fitness is 0.021 ± 0.073.
For SSRTRFTDYQLRVLQDFFDANAYPKDDEFEQLSNLLNYPTRVIVVWFQNARQKARK [L38Y], the abundance fitness was -0.625 ± 0.25.
To SSRTRFTDYQLRVLQDFFDANAYPKDDEFEQLSNLLNMPTRVIVVWFQNARQKARK [L38M] belongs -0.026 ± 0.13.
Regarding SSRTRFTDYQLRVLQDFFCANAYPKDDEFEQLSNLLNLPTRVIVVWFQNARQKARK [D19C], the abundance fitness is -0.036 ± 0.45.
On to SSRTRFTDYQLRVLQDFFEANAYPKDDEFEQLSNLLNLPTRVIVVWFQNARQKARK [D19E], for which the abundance fitness was 0.172 ± 0.23.
To SSRTRFTDYQLRVLQDFFGANAYPKDDEFEQLSNLLNLPTRVIVVWFQNARQKARK [D19G] belongs -0.414 ± 0.15.
SSRTRFTDYCLRVLQDFFDANAYPKDDEFEQLSNLLNLPTRVIVVWFQNARQKARK [Q10C]: the abundance fitness is -0.764 ± 0.17.
With SSRTRFTDYLLRVLQDFFDANAYPKDDEFEQLSNLLNLPTRVIVVWFQNARQKARK [Q10L] the figure was -0.919 ± 0.15.
With SSRTRFTDYQLRVLQDFFDANHYPKDDEFEQLSNLLNLPTRVIVVWFQNARQKARK [A22H] the figure was -0.125 ± 0.079; with SSRTRFTDYQLRVLQDFFDANLYPKDDEFEQLSNLLNLPTRVIVVWFQNARQKARK [A22L], -0.129 ± 0.07; with SSRTRFTDYQLRVLQDFFDANMYPKDDEFEQLSNLLNLPTRVIVVWFQNARQKARK [A22M], 0.106 ± 0.11.
As to SSRTRFTDYQLRVLQDFFDANAYPKDDEFEQLSNLLNLPTRVIVQWFQNARQKARK [V45Q], the abundance fitness came out at 0.046 ± 0.089.
With SSRTRFTDYQLRVLQDFFDANAYPKDDEFEQLSNLLNLPTRVIVAWFQNARQKARK [V45A], the abundance fitness is 0.004 ± 0.074.
Turning to SSRTRFTDYQLRVLQDFFDANAYPKDDEFEQLSNLLNLPTRVIVVWFQNARTKARK [Q52T], the abundance fitness was -0.036 ± 0.07.
As for SSRTRFTDYQLRVLQDFFDANAYPKDDEFEQPSNLLNLPTRVIVVWFQNARQKARK [L32P], the abundance fitness was -1.02 ± 0.32.
Consider SSRTRFTDYQLRVLQDFFDANAYPKDDEFEQESNLLNLPTRVIVVWFQNARQKARK [L32E], for which the abundance fitness is -0.957 ± 0.13.
For SSRTRFTDYQLRVLQDFEDANAYPKDDEFEQLSNLLNLPTRVIVVWFQNARQKARK [F18E], the abundance fitness was -0.579 ± 0.12.
For SSRTRFTDYQLRVLQDFNDANAYPKDDEFEQLSNLLNLPTRVIVVWFQNARQKARK [F18N], the abundance fitness was -0.733 ± 0.29.
To SSRTRFTDYQLRVLQDFFDPNAYPKDDEFEQLSNLLNLPTRVIVVWFQNARQKARK [A20P] belongs -0.543 ± 0.18.
Take SSRTRFTDYQLRVLQDFFDINAYPKDDEFEQLSNLLNLPTRVIVVWFQNARQKARK [A20I]: the abundance fitness was -0.405 ± 0.21.
Take SSRTRFTDYQLRVLQDFFDANAYPKDDEFEQLSNLLGLPTRVIVVWFQNARQKARK [N37G]: the abundance fitness is -0.046 ± 0.076.
With SSRTRFTDYQLRVLQDFFDANAYPKDDEFEQLSNLLNLFTRVIVVWFQNARQKARK [P39F], the abundance fitness was -0.715 ± 0.12.
Turning to SSRTRFTDYQLRVLQDFFDANAYPKDDEFEQLSNLLNLNTRVIVVWFQNARQKARK [P39N], the abundance fitness is -0.157 ± 0.098.
As for SSRTRFTDYQLRVLQDFFDANAYPKRDEFEQLSNLLNLPTRVIVVWFQNARQKARK [D26R], the abundance fitness is -0.16 ± 0.083.
Consider SSRTPFTDYQLRVLQDFFDANAYPKDDEFEQLSNLLNLPTRVIVVWFQNARQKARK [R5P], for which the abundance fitness is 0.026 ± 0.092.
Regarding SSRTRFTDYQLRVLQDFFDANAYRKDDEFEQLSNLLNLPTRVIVVWFQNARQKARK [P24R], the abundance fitness is -0.633 ± 0.12.
SSRTRFTDYQLRVLQDFFDANAYPKDDEFEQLSNLLNLPTRMIVVWFQNARQKARK [V42M]: the abundance fitness is -0.059 ± 0.13.
As for SSRTRFTDYQLRVLQDFFDANAYPKDDEFEQLSNLLNLPTRNIVVWFQNARQKARK [V42N], the abundance fitness was 0.003 ± 0.18.
Turning to SSRTRFTDYQLRVLQDFFDANAYPKDDEFEQLSNLLNLPTRHIVVWFQNARQKARK [V42H], the abundance fitness was 0.022 ± 0.19.
With SSRTRFTDYQLRVLQVFFDANAYPKDDEFEQLSNLLNLPTRVIVVWFQNARQKARK [D16V] the figure was -0.344 ± 0.11; with SSRTRFTDYQLRVLQDFFDANAYPKDDEFEHLSNLLNLPTRVIVVWFQNARQKARK [Q31H], -0.165 ± 0.21.
As for SSRTRFTDYQLRVLQDFFDANAYPKDDEFEQLSNLLNLPKRVIVVWFQNARQKARK [T40K], the abundance fitness is 0.221 ± 0.13.
Regarding SSRTRFTDYQLRVLQDFFDANAYPKDDEFEQLSNLLNLPQRVIVVWFQNARQKARK [T40Q], the abundance fitness was -0.214 ± 0.11.
SSRTRFTDYQLRVIQDFFDANAYPKDDEFEQLSNLLNLPTRVIVVWFQNARQKARK [L14I]: the abundance fitness is -0.108 ± 0.17.
Take SSRTRFTDYQLRVLQDFFDANAYPKDDETEQLSNLLNLPTRVIVVWFQNARQKARK [F29T]: the abundance fitness was -0.27 ± 0.13.
Consider SSRTRFTDYQLRVLQDFFDANAYPKDDELEQLSNLLNLPTRVIVVWFQNARQKARK [F29L], for which the abundance fitness was -0.035 ± 0.1.
Regarding SSRTRFTDYQLRVLQDFFDANAYPKDDEFEQLSNLLNLPTRVIVVWFQNSRQKARK [A50S], the abundance fitness was -0.084 ± 0.081.
Turning to SSRTRFTTYQLRVLQDFFDANAYPKDDEFEQLSNLLNLPTRVIVVWFQNARQKARK [D8T], the abundance fitness is -0.158 ± 0.1.
For the variant SSRTRFTVYQLRVLQDFFDANAYPKDDEFEQLSNLLNLPTRVIVVWFQNARQKARK [D8V], the abundance fitness was -0.405 ± 0.086.
With SSRTRFTRYQLRVLQDFFDANAYPKDDEFEQLSNLLNLPTRVIVVWFQNARQKARK [D8R] the figure was -0.173 ± 0.099; with SSRTRFTDYQLRVLQDFFDANAYPKDDEFEQLENLLNLPTRVIVVWFQNARQKARK [S33E], -0.5 ± 0.15.
Consider SSRTRFTDYQLRVLQDFFDANAYPKDDEFEQLTNLLNLPTRVIVVWFQNARQKARK [S33T], for which the abundance fitness was -0.316 ± 0.14.
As to SSLTRFTDYQLRVLQDFFDANAYPKDDEFEQLSNLLNLPTRVIVVWFQNARQKARK [R3L], the abundance fitness was determined as 0.439 ± 0.095.
For the variant SSPTRFTDYQLRVLQDFFDANAYPKDDEFEQLSNLLNLPTRVIVVWFQNARQKARK [R3P], the abundance fitness stood at 0.17 ± 0.13.
